Laboratory results published in the supplement of paper PMC10126150.
± gives the standard deviation of the averaged measurements.

test system: ATP; test: switch fluorescence ratio, 500 uM ATP over buffer (Cy3 cluster intensity, sum of 5 cycles each) (fold (ratio)); higher = stronger signal-on switching upon ATP binding; sequences stand for … in TCGTCGGCAGCGTCAGATGTGTATAAGAGACAGTTTTTTTTTTTTTTTTTTTTTTTTT…TC; conditions: aptamer strand: ATP DNA aptamer (quencher-CACCTGGGGGAGTATTGCGGAGGAAGG + anchor), 100 nM annealed; ATP concentration: 500 uM
Outline: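 The fluorescence ratio divides summed target-cycle Cy3 intensity by summed buffer-cycle Cy3 intensity for each cluster and is averaged per switch-domain sequence. Cy3-labelled switching-strand clusters on a modified Illumina MiSeq flow-cell were annealed to 100 nM quencher-labelled ATP aptamer, then imaged in selection buffer and again after 15 min with 500 uM ATP at 22 °C. Five such cycles were run, with NaOH stripping and re-annealing between them, and clusters outside 100-1000 RFU were excluded.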
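Note: ATP exposure 15 min at 22 °C before imaging.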

Sequence | switch fluorescence ratio
TTTATAGGAA | 1.02 ± 0.03
TAATAGTATA | 1 ± 0.013
GGCTGAGCGG | 0.976 ± 0.027
CTGACGAAGG | 1.05 ± 0.029
ACTGATCAGA | 0.99427 ± 0.00038
CGGATGGAAA | 0.964 ± 0.02
GGGTAAGCCG | 0.918 ± 0.02
GTGGTTGTGC | 0.97 ± 0.035
ACCCGGGCTT | 0.995 ± 0.026
CATGGCCTGA | 0.977 ± 0.018
AGAAGGGTT | 1.016 ± 0.0044
GGTGTTAAAC | 1.01 ± 0.035
ATTTTTGATC | 1.02 ± 0.032
ATAGAGCGCT | 0.988 ± 0.023
TTGGGGCCCA | 1 ± 0.022
TTATGGCGGT | 1.063 ± 0.0057
TTTTATTTTT | 0.997 ± 0.028
ATGGTTTTAA | 1.03 ± 0.02
TCCGATTTAT | 0.989 ± 0.026
TGGGGGG | 1.016 ± 0.0078
AATACTGGTT | 1.04 ± 0.021
AGGGGTCTCT | 0.985 ± 0.013
TAACAGGAAT | 0.966 ± 0.042
GGGGCCCAGG | 1 ± 0.067
ATCATGGGGG | 0.986 ± 0.022

Sequence | switch fluorescence ratio
TGCGATTCTG | 0.978 ± 0.032
TAATCTTTTG | 0.986 ± 0.026
GATGGACAGC | 1.04 ± 0.041
TGGGGGTCCT | 1.01 ± 0.031
GGGTCGCAGA | 1.04 ± 0.058
TCATTTGGAT | 1 ± 0.023
CCCGATTTTT | 0.993 ± 0.017
GGAATGAGGA | 0.99242 ± 0.0004
ACTGGACGAT | 1.19 ± 0.015
CTGTGGGTTG | 1 ± 0.042
GGGAGACCAA | 0.9822 ± 0.0031
AAGAGTGGCT | 1.03 ± 0.017
TAGGTGTTAT | 1.02 ± 0.037
TTAGACGCTT | 1 ± 0.011
GGCTTGGAAT | 0.989 ± 0.011
TGCTGGCCTG | 1.01 ± 0.019
GAAGGGAATG | 1.01 ± 0.017
AAGAGAACTT | 0.993 ± 0.013
TTCGACCGTG | 0.997 ± 0.033
AGAGTATTTT | 0.999 ± 0.028
AAGCGGGAGG | 1.02 ± 0.011
GACATGGGGC | 1.04 ± 0.058
ACTGGGGGGT | 0.994 ± 0.02
GGTGTTATGT | 1.01 ± 0.016
AGGGTGTTGG | 1 ± 0.017

Sequence | switch fluorescence ratio
TGATTGGGTC | 1.02 ± 0.036
TGTTGGACGT | 1.036 ± 0.0024
TTTCAGCTTA | 1.15 ± 0.15
TTTTGAGGGA | 0.9877 ± 0.002
GATGGCCACG | 0.9881 ± 0.0047
TCTCAGTCAC | 1.08 ± 0.018
TTAGCCGCGG | 0.997 ± 0.016
CAGAACGTTG | 0.983 ± 0.016
TTTTCATGAT | 0.991 ± 0.022
ACGCATTGGT | 1.188 ± 0.0086
CTAGGAGGGA | 0.98 ± 0.013
TGAGAGATTG | 0.9773 ± 0.007
TAGGTTGTGC | 0.976 ± 0.037
GGTGATTTAA | 1.01 ± 0.012
TTAATATGGA | 0.999 ± 0.012
TTAGGACTAG | 0.9698 ± 0.0048
TATGTTGTTT | 1.04 ± 0.023
TCGGCTTTTT | 0.999 ± 0.025
TTACATCTGG | 0.9842 ± 0.007
CAGCCGGATG | 1.02 ± 0.028
GAATGCAAAG | 1.03 ± 0.041
GGTTTAATTT | 0.993 ± 0.026
ATCATGGCTT | 1.03 ± 0.011
ATTGAGTGGC | 0.928 ± 0.026
TCGTTTCGCA | 1.11 ± 0.023

Sequence | switch fluorescence ratio
GGTAGTACTG | 0.995 ± 0.095
AGGGGGATCT | 1.03 ± 0.04
CAAGTATTTA | 1.03 ± 0.011
TCGATAGCTG | 0.935 ± 0.046
GTGGGATCTG | 0.9894 ± 0.008
TCCCCAATTT | 1.13 ± 0.12
CATAATATTA | 0.9698 ± 0.0032
TTACGGGGGG | 1.02 ± 0.052
GAGAAGCACG | 0.978 ± 0.055
CAAGCTTGAA | 0.963 ± 0.026
GATACCTTCG | 2.614 ± 0.023
ATAGGTCTAT | 1.04 ± 0.065
AGTTGGGGTT | 1.035 ± 0.0033
CTTAGGGCAC | 1.05 ± 0.016
CTGAGGGTAT | 1.006 ± 0.0098
ATGCAGGAGT | 0.98647 ± 0.00087
AGGGAAAGTT | 1.01 ± 0.024
GGCTTGGGGC | 0.9756 ± 0.0032
TAGGGTTGCA | 1 ± 0.057
AAGGAGGGTA | 1.01 ± 0.038
TATCTTTGGG | 0.981 ± 0.026
ACTTGACCCG | 1.08 ± 0.064
TGCCCCTTTT | 0.98 ± 0.013
CAAGTGTATC | 1.02 ± 0.045
CAGTTTTGGC | 1.01 ± 0.025
